The text below walks through data of the supplement of paper PMC5998384.

Data set [1] concerns HeLa Kyoto. Description: solubility in G1/S (NP-40 vs SDS abundance) (log2 ratio); higher = more soluble. The note with it: cell cycle stage: G1/S.
The test system of data set [2] is HeLa Kyoto. Description: melting temperature (median over replicates), in situ; higher = more thermally stable.
The subject of data set [3] is HeLa Kyoto. Description: solubility change mitosis vs G1/S (difference of NP-40 vs SDS log2 ratios) (log2 ratio difference); higher = more soluble in mitosis.
Data set [4] relates to HeLa Kyoto. Nature of the data set: thermal stability score vs G1/S (z-score of summed log2 fold changes over temperatures); higher = more thermally stable than in G1/S.
The mark [5] stands for this setting: cell cycle stage: early G1 (4.5 h after nocodazole release).
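For melting temperature (median over replicates), in situ in this document: HeLa Kyoto cells synchronized by double thymidine or nocodazole block, proteins quantified by TMT10plex mass spectrometry, three independent biological replicates.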
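For solubility change mitosis vs G1/S (difference of NP-40 vs SDS log2 ratios) in this document: synchronized HeLa Kyoto cells (double thymidine block for G1/S, nocodazole release for mitosis), protein amounts in NP-40 versus SDS lysates quantified by mass spectrometry, three biological replicates.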
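For solubility in G1/S (NP-40 vs SDS abundance) in this document: HeLa Kyoto cells arrested at G1/S by double thymidine block, proteins quantified by TMT10plex mass spectrometry in mild NP-40 versus SDS extracts, three biological replicates.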
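For thermal stability score vs G1/S (z-score of summed log2 fold changes over temperatures) in this document: synchronized HeLa Kyoto cells, proteins quantified by TMT10plex mass spectrometry, three biological replicates, mitosis taken 0.5 h after nocodazole release, G1/S directly after double thymidine block.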

As for “MSFRKVNIIILVLAVALFLLVLHHNFLSLSSLLRNEVTDSGIVGPQPIDFVPNALRHAVDGRQEEIPVVIAASEDRLGGAIAAINSIQHNTRSNVIFYIVTLNNTADHLRSWLNSDSLKSIRYKIVNFDPKLLEGKVKEDPDQGESMKPLTFARFYLPILVPSAKKAIYMDDDVIVQGDILALYNTALKPGHAAAFSEDCDSASTKVVIRGAGNQYNYIGYLDYKKERIRKLSMKASTCSFNPGVFVANLTEWKRQNITNQLEKWMKLNVEEGLYSRTLAGSITTPPLLIVFYQQHSTIDPMWNVRHLGSSAGKRYSPQFVKAAKLLHWNGHLKPWGRTASYTDVWEKWYIPDPTGKFNLIRRYTEISNIK [GLT8D1]”, the “solubility in G1/S (log2)” value with HeLa Kyoto [1] turned out to be 0.144. Moreover, the melting temperature in the data set on HeLa Kyoto [2] (cell cycle stage: G1/S) and in the data set on HeLa Kyoto [2] (cell cycle stage: mitosis) was 53 °C throughout. Besides, the “solubility change mitosis (log2)” value with HeLa Kyoto [3] amounted to 0.024. Besides, the thermal stability score was 3.31 in the data set with HeLa Kyoto [4] (setting [5]) and 5.82 with HeLa Kyoto [4] (cell cycle stage: mitosis).

Consider “MSFRKVVRQSKFRHVFGQPVKNDQCYEDIRVSRVTWDSTFCAVNPKFLAVIVEASGGGAFLVLPLSKTGRIDKAYPTVCGHTGPVLDIDWCPHNDEVIASGSEDCTVMVWQIPENGLTSPLTEPVVVLEGHTKRVGIIAWHPTARNVLLSAGCDNVVLIWNVGTAEELYRLDSLHPDLIYNVSWNHNGSLFCSACKDKSVRIIDPRRGTLVAEREKAHEGARPMRAIFLADGKVFTTGFSRMSERQLALWDPENLEEPMALQELDSSNGALLPFYDPDTSVVYVCGKGDSSIRYFEITEEPPYIHFLNTFTSKEPQRGMGSMPKRGLEVSKCEIARFYKLHERKCEPIVMTVPRKSDLFQDDLYPDTAGPEAALEAEEWVSGRDADPILISLREAYVPSKQRDLKISRRNVLSDSRPAMAPGSSHLGAPASTTTAADATPSGSLARAGEAGKLEEVMQELRALRALVKEQGDRICRLEEQLGRMENGDA [CORO1B]”, for which the “solubility in G1/S (log2)” value with HeLa Kyoto [1] was -0.0585. Besides, the melting temperature with HeLa Kyoto [2] (cell cycle stage: G1/S) turned out to be 51.1 °C; in the data set on HeLa Kyoto [2] (cell cycle stage: mitosis) it was 50.6 °C. Further, in the data set with HeLa Kyoto [3], the “solubility change mitosis (log2)” value is -0.0904. Further, the thermal stability score with HeLa Kyoto [4] (setting [5]) was -0.395; with HeLa Kyoto [4] (cell cycle stage: mitosis), -0.683.

As for “MSFVAYEELIKEGDTAILSLGHGAMVAVRVQRGAQTQTRHGVLRHSVDLIGRPFGSKVTCGRGGWVYVLHPTPELWTLNLPHRTQILYSTDIALITMMLELRPGSVVCESGTGSGSVSHAIIRTIAPTGHLHTVEFHQQRAEKAREEFQEHRVGRWVTVRTQDVCRSGFGVSHVADAVFLDIPSPWEAVGHAWDALKVEGGRFCSFSPCIEQVQRTCQALAARGFSELSTLEVLPQVYNVRTVSLPPPDLGTGTDGPAGSDTSPFRSGTPMKEAVGHTGYLTFATKTPG [TRMT61A]”, the “solubility in G1/S (log2)” value in the data set on HeLa Kyoto [1] was -0.0252. Also, the melting temperature came out at 55.4 °C in the data set with HeLa Kyoto [2] (cell cycle stage: G1/S) and 57.5 °C with HeLa Kyoto [2] (cell cycle stage: mitosis). For the same sequence, the “solubility change mitosis (log2)” value in the data set on HeLa Kyoto [3] is -0.00636. For the same sequence, the thermal stability score with HeLa Kyoto [4] (setting [5]) is 0.944; with HeLa Kyoto [4] (cell cycle stage: mitosis), -0.546.

For the sequence “MSGAEEAGGGGPAAGPAGSVPAGVGVGVGAGPGAAAGQAAAAALGEAAGPGLPDEAGLAGARQLQLQEAAGDPDAPPKKRLRAAEAAEAAAAAAAAGSGKLEERLYSVLCCTVCLDLPKASVYQCTNGHLMCAGCFIHLLADARLKEEQATCPNCRCEISKSLCCRNLAVEKAVSELPSECGFCLRQFPRSLLERHQKEECQDRVTQCKYKRIGCPWHGPFHELTVHEAACAHPTKTGSELMEILDGMDQSHRKEMQLYNSIFSLLSFEKIGYTEVQFRPYRTDDFITRLYYETPRFTVLNQTWVLKARVNDSERNPNLSCKRTLSFQLLLKSKVTAPLECSFLLLKGPYDDVRISPVIYHFVFTNESNETDYVPLPIIDSVECNKLLAAKNINLRLFLFQIQK [CYHR1]”, in the data set with HeLa Kyoto [1], the “solubility in G1/S (log2)” value was determined as 0.166. The melting temperature with HeLa Kyoto [2] (cell cycle stage: G1/S) turned out to be 54 °C; in the data set with HeLa Kyoto [2] (cell cycle stage: mitosis) it was 55 °C. Moreover, the “solubility change mitosis (log2)” value in the data set with HeLa Kyoto [3] was -0.0838. For the same sequence, the thermal stability score is -1.75 with HeLa Kyoto [4] (setting [5]) and -2.18 in the data set on HeLa Kyoto [4] (cell cycle stage: mitosis).

“MSGASSSEQNNNSYETKTPNLRMSEKKCSWASYMTNSPTLIVMIGLPARGKTYVSKKLTRYLNWIGVPTKVFNLGVYRREAVKSYKSYDFFRHDNEEAMKIRKQCALVALEDVKAYLTEENGQIAVFDATNTTRERRDMILNFAEQNSFKVFFVESVCDDPDVIAANILEVKVSSPDYPERNRENVMEDFLKRIECYKVTYRPLDPDNYDKDLSFIKVINVGQRFLVNRVQDYIQSKIVYYLMNIHVQPRTIYLCRHGESEFNLLGKIGGDSGLSVRGKQFAQALRKFLEEQEITDLKVWTSQLKRTIQTAESLGVPYEQWKILNEIDAGVCEEMTYAEIEKRYPEEFALRDQEKYLYRYPGGESYQDLVQRLEPVIMELERQGNVLVISHQAVMRCLLAYFLDKGADELPYLRCPLHTIFKLTPVAYGCKVETIKLNVEAVNTHRDKPTNNFPKNQTPVRMRRNSFTPLSSSNTIRRPRNYSVGSRPLKPLSPLRAQDMQEGAD [PFKFB2]”: the “solubility in G1/S (log2)” value in the data set with HeLa Kyoto [1] worked out at 0.16. The melting temperature was 53.9 °C in the data set on HeLa Kyoto [2] (cell cycle stage: G1/S) and 53.3 °C in the data set on HeLa Kyoto [2] (cell cycle stage: mitosis). Further, the “solubility change mitosis (log2)” value in the data set with HeLa Kyoto [3] was -0.071. Besides, the thermal stability score in the data set on HeLa Kyoto [4] (setting [5]) was determined as 0.139; with HeLa Kyoto [4] (cell cycle stage: mitosis), 0.693.

For “MSGEDEQQEQTIAEDLVVTKYKMGGDIANRVLRSLVEASSSGVSVLSLCEKGDAMIMEETGKIFKKEKEMKKGIAFPTSISVNNCVCHFSPLKSDQDYILKEGDLVKIDLGVHVDGFIANVAHTFVVDVAQGTQVTGRKADVIKAAHLCAEAALRLVKPGNQNTQVTEAWNKVAHSFNCTPIEGMLSHQLKQHVIDGEKTIIQNPTDQQKKDHEKAEFEVHEVYAVDVLVSSGEGKAKDAGQRTTIYKRDPSKQYGLKMKTSRAFFSEVERRFDAMPFTLRAFEDEKKARMGVVECAKHELLQPFNVLYEKEGEFVAQFKFTVLLMPNGPMRITSGPFEPDLYKSEMEVQDAELKALLQSSASRKTQKKKKKKASKTAENATSGETLEENEAGD [PA2G4]”, the “solubility in G1/S (log2)” value with HeLa Kyoto [1] is -0.0146. For the same sequence, the melting temperature was 51.5 °C with HeLa Kyoto [2] (cell cycle stage: G1/S) and 52.1 °C in the data set on HeLa Kyoto [2] (cell cycle stage: mitosis). In addition, the “solubility change mitosis (log2)” value with HeLa Kyoto [3] is -0.108. For the same sequence, the thermal stability score is -0.392 in the data set with HeLa Kyoto [4] (setting [5]) and 2 in the data set with HeLa Kyoto [4] (cell cycle stage: mitosis).
